Experimental data published in patent publication US20190160169A1 (JULIUS MAXIMILIANS UNIVERSIT T W RZBURG, published 2019).

Tests used:
[1] = target: T1, recombinant mature human GDF-15 protein (derived from Baculovirus-transfected HighFive insect cells) (human, UniProt Q99988 197-308); assay: SPR (Biorad ProteOn XPR36), KD=koff/kon
T1 construct: also called recombinant human GDF-15; GDF-15 derived from insect cell expression
T1 sequence: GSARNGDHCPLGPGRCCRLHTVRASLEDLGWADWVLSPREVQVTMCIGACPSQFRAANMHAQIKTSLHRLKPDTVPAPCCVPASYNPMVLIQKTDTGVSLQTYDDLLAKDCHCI
Text: (§1) For preparing the biosensors recombinant mature human GDF-15 protein was immobilized on flow cells 1 and 2. On one flow cell recombinant GDF-15 derived from Baculvirus-transfected insect cells (HighFive insect cells) and on the other recombinant protein derived from expression in E. coli was used. The GLC sensor chip was activated using Sulfo-NHS (N-Hydroxysulfosuccinimide) and EDC (1-Ethyl-3-[3-dimethylaminopropyl]carbodiimide hydrochloride) (Biorad ProteOn Amine Coupling Kit) according to the manufacturer's recommendation, the sensor surface was subsequently loaded with the proteins up to a density of about 600 RU (1 Ru=1 pg mm⁻²). The non-reacted coupling groups were then quenched by perfusion with 1M ethanolamine pH 8.5 and the biosensor was equilibrated by perfusing the chip with running buffer ([…], 150 mM NaCl, 3.4 mM EDTA, 0.005% Tween-20, pH 7.4, referred to as HBS150). […] The resulting sensogram was analyzed using the software ProteOn Manager version 3.0. […] For the association rate constant a value of 5.4±0.06×10⁵ M⁻¹ s⁻¹ (kₒₙ) and for the dissociation rate constant a value of 4.3±0.03×10⁻⁴ s⁻¹ (koff) could be determined (values are for the interaction of anti-human GDF-15 mAb-B1-23 with GDF-15 derived from insect cell expression).

[2] = target: recombinant mature human GDF-15 protein derived from expression in E. coli (human) (UniProt Q99988); assay: SPR (Biorad ProteOn XPR36), GDF-15 immobilised on GLC chip, antibody as analyte
[3] = target: T1, recombinant mature human GDF-15 protein …; assay: SPR (Biorad ProteOn XPR36), GDF-15 immobilised on GLC chip, antibody as analyte, 25 °C, 1:1 Langmuir
Text: as §1

B1: monoclonal anti-human GDF-15 mAb-B1-23 (antibody, V domains shown)
VH: QVKLQQSGPGILQSSQTLSLTCSFSGFSLSTSGMGVSWIRQPSGKGLEWLAHIYWDDDKRYNPTLKSRLTISKDPSRNQVFLKITSVDTADTATYYCARSSYGAMDYWGQGTSVTVSS
VL: DIVLTQSPKFMSTSVGDRVSVTCKASQNVGTNVAWFLQKPGQSPKALIYSASYRYSGVPDRFTGSGSGTDFTLTISNVQSEDLAEYFCQQYNNFPYTFGGGTKLEIK
notes: also called antibody B1-23; monoclonal mouse antibody GDF-15
- Kd [1]: ~0.79 nM
- deviation of rate constants against GDF-15 derived from insect cells [2]: 45%
- difference of affinity values against GDF-15 derived from insect cells [2]: < 2 fold
- koff [3]: 0.00043 s⁻¹
- kon [3]: 540000 M⁻¹ s⁻¹
